Assay results: the RNAGym collection of RNA variant scans (doi:10.1073/pnas.2313332121)
This sample holds only a part of the variants without activity.

B1: TPR 5TU (parent)
chain: GGAUCUUCUCGAUCUAACAAAAAAGACAAAUCUGCCACAAAGCUUGAGAGCAUCUUCGGAUGCAGAGGCGGCAGCCUUCGGUGGCGCGAUAGCGCCAACGUUCUCAACUAUGACACGCAAAACGCGUGCUCCGUUGAAUGGAGUUUAUCAUG

Variants of: B1
Assay: polymerase ribozyme fitness, log enrichment relative to wild type (log ratio); higher = more active; in vitro selection for triplet polymerase activity
Procedure, shortened: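 Mutant libraries of each subunit of a heterodimeric triplet polymerase ribozyme were built by PCR and transcribed. Each library went through one round of in vitro selection in triplicate: annealing with biotinylated primer, partner subunit and triplets, frozen incubation at −7 °C, gel excision of extended constructs, streptavidin-bead capture and RT-PCR. Input and output libraries were Illumina-sequenced; only genotypes with ≥10 input reads and ≥1 read per output were kept. Fitness is log2(genotype enrichment/wild-type enrichment), using inverse-variance-weighted replicate averages.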

| Variant | polymerase ribozyme fitness (log ratio) |
| --- | --- |
| A3C G34A C96G | -3.63 |
| A20U U31C U109G | -0.957 |
| C5U A16U A26U U44A A52G G92C | ≤ -4.2 |
| C27U A47C U56G C76U U78A G94A A97U C118U | ≤ -4.2 |
| A39U A91C G141C U148G | ≤ -4.2 |
| C51U U53A C96G G124U A147U | -3.84 |
| A22G C85U | -0.836 |
| A16G A20C A22C G25A A37U A40C C75U C96U U130G A138U U145G | ≤ -4.2 |
| A21C A24G A39G C54U U78G G94A C129G U134G G140U U145G | ≤ -4.2 |
| U56A A115C | -0.798 |
| U31A G46C C95U | -1.57 |
| C54U U56A G71A A107C A150C | ≤ -4.2 |
| U61G C93G C99G C123G C125G | ≤ -4.2 |
| G11U C14G G34U G84U G141U | ≤ -4.2 |
| G83C U146A | -0.565 |
| G84U U130A U145C | -4.13 |
| C69U C118U | -1.4 |
| A41C A89U C123G | -1.41 |
| A17U A29U A37C C75U G80U G92A C125U A142C | ≤ -4.2 |
| A19C A60C U102G U109G U151G | ≤ -4.2 |
| A39U U53A C75G G86U U146G | ≤ -4.2 |
| C75G A142U | -3.7 |
| U31A U55A A147G | -0.55 |
| A47G U53A | -0.375 |

| Variant | polymerase ribozyme fitness (log ratio) |
| --- | --- |
| G92A A106C U111G G136A | ≤ -4.2 |
| U53A C57A C69G A91C | ≤ -4.2 |
| C5G U55G G83U U101C | -2.49 |
| U53G G117C A137G | -2.86 |
| C54A G88C | -3.99 |
| G58U G83A C85U | -0.262 |
| G92A U104A A106C C108A | ≤ -4.2 |
| C10U C18U U44G A60G G92A | ≤ -4.2 |
| A40G A91G A115G C116G A142C | ≤ -4.2 |
| G80A A91C G94A | -4.16 |
| C75A G80C C105G | ≤ -4.2 |
| A40C G50A A60U G88U G92C C95G G100U | ≤ -4.2 |
| A37C A64C G71A C85A G126C | ≤ -4.2 |
| A17G A21U C51U U53A C79U G94A A115G | ≤ -4.2 |
| G88C C108G | ≤ -4.2 |
| A24C C85U A120C U146A | ≤ -4.2 |
| U45A U55G U56G C87U G92C | -3.98 |
| A20U A41U U55A A66U G84A C116A | ≤ -4.2 |
| A41C C95U | -2.15 |
| A17U A30G G42U G81C C85U A122U | ≤ -4.2 |
| U15G A21U A39G A47G G83A A142G | -3.92 |
| A24G U145A | -3.78 |
| U56A C93A | -2.63 |
| A89C C95G | -3.24 |

| Variant | polymerase ribozyme fitness (log ratio) |
| --- | --- |
| C57G G65A U134C | -1.35 |
| U7A C85U | -2.9 |
| U6A C79A G86U A89C C103G | ≤ -4.2 |
| A17G A21G A29G G81A C93G G112U C118A U135A | ≤ -4.2 |
| A20G U55A C96A U104G | -2.4 |
| A73U G80A C93U U146G | -3.03 |
| C75U G128U | -3.28 |
| A115C | -0.641 |
| U31A C95G U130A | -3.43 |
| A17U A29C C43G G86A U135C | -4.06 |
| A40C G88U C96U A122U U127G U148A A150U | ≤ -4.2 |
| C75U G84U U101C | -1.45 |
| A26U C118A | -2.33 |
| A89C C103A | -2.11 |
| C32G U61A G92U C131U | ≤ -4.2 |
| C114G G133A | ≤ -4.2 |
| A30U A91U | ≤ -4.2 |
| G59U C69G G88C C125A | ≤ -4.2 |
| A21U C36A G86A A98C | -4.1 |
| C57A U90A A91U A138U | ≤ -4.2 |
| C76A U102G | ≤ -4.2 |
| U6G A49C C51U G88A A107U A142G | ≤ -4.2 |
| U77G G81A A97G C99G U101C G141U A142G | ≤ -4.2 |
| A21G G84U C118U | -1.39 |

| Variant | polymerase ribozyme fitness (log ratio) |
| --- | --- |
| G71U U144G | -1.84 |
| C93A A98U C125G C131U | -2.4 |
| C8G A22C A24U C69U A73U C93U | ≤ -4.2 |
| C57A C85U | -0.0999 |
| C57A A60G U101A U109A A113U | -3.65 |
| C114A U139G | -2.32 |
| C85U G152U | -3.73 |
| C85G C93G | -3.68 |
| G25U C85U C116G A120U G141C | ≤ -4.2 |
| A52C A98U | -0.983 |
| A20U G48A G68U G83C C103G A138G G143C | ≤ -4.2 |
| G50U A66C C69U A73C | ≤ -4.2 |
| A19G C85G G117A A137G | -2.73 |
| C63U U139G | 0.261 |
| G92C U104G | -1.85 |
| C27U G46A C75A A91U G94A | ≤ -4.2 |
| C54U G94A | -0.351 |
| U53G C96G U144C | -3.23 |
| U45G C76A C129G U134G | ≤ -4.2 |
| A47C A49G | -0.809 |
| G74A U145A | -3.36 |
| U45C U77G C79G | ≤ -4.2 |
| C5A G92A U104G A120U C123A U130G | ≤ -4.2 |
| A20U A73G C79A C96G | ≤ -4.2 |

| Variant | polymerase ribozyme fitness (log ratio) |
| --- | --- |
| A12U U45A U55G A66G U78C G88U C95G A137U | ≤ -4.2 |
| C32G A110G A122C G141C | -4.02 |
| U4C U33A A40U U82G C96G C108U C118U U139C U148A | ≤ -4.2 |
| A47G G84U U135A | -2.45 |
| G71C G92U | -3.46 |
| A29G U31A C43G | ≤ -4.2 |
| C96A C105U | 0.343 |
| A16G A23C U55G G88A C108A U111C A122C | ≤ -4.2 |
| A19U U55A G59U | 0.528 |
| U6A G34A C69U A73G U77A C79A C87A C96U C105A A107U G136A U139A | ≤ -4.2 |
| C54G C95G G133A | ≤ -4.2 |
| A20U A37C A52G G124U | -2.09 |
| U44G C54U C85G G117U A122U | ≤ -4.2 |
| A26G C38A A60U A64C C76U | ≤ -4.2 |
| A16C A91C U101C | ≤ -4.2 |
| U45A A73U | ≤ -4.2 |
| C8U U9G C18G U33G U55A C95U C105U G112U C132U A147U | ≤ -4.2 |
| A21C A22U C54U A73G A89G | -1.48 |
| C38U C93G C125A | -3.39 |
| C10G C18U G59U G86A C103A | ≤ -4.2 |
| U4C G50A G83A C87A A91C G92A U146A | ≤ -4.2 |
| A19C A39U U53G A89U U104G C108A G136A A138C U145A | ≤ -4.2 |
| A138C | -3.67 |
| G62C G68U A89G C108A A113U | ≤ -4.2 |

| Variant | polymerase ribozyme fitness (log ratio) |
| --- | --- |
| G58C G86U C105A | -2.89 |
| C14U C54U C57U C72U G83A | -4.05 |
| A12G C54U C69G U145G | -4.06 |
| A22G C96U C114U A115U | ≤ -4.2 |
| A24U C38G C57G G83C A91U C105A C149A | ≤ -4.2 |
| C85A U109G | -1.33 |
| C54U C125G | -1.05 |
| C54G G59U U135C A138U | ≤ -4.2 |
| A60G U139C G141C U144A | -4.04 |
| A29C A37U G133A | ≤ -4.2 |
| A20G A29U C51A A106C A113U | -4.2 |
| C27A A28C C57G C76A A91C | ≤ -4.2 |
| G124A A150G | -0.501 |
| A23U A26C A30U U56A A60C G86U G88C C95G G124U A137U U148C | ≤ -4.2 |
| U53A U61A U109G | -2.25 |
| C85U U101G C105A U109G A110G | -4.19 |
| A30C C79G C85U A106U | ≤ -4.2 |
| U4A A17G C35A G59C U135A | ≤ -4.2 |
| A12U C54U G86C | -3.04 |
| U13A A41C A91U C96U | ≤ -4.2 |
| U61G G86A | -2.45 |
| C10U A19C U45G C72G U90C U135G | ≤ -4.2 |
| A41U U56A C93A A121U | -3.16 |
| U33G G81C G83A C87G C105A A120C A121G G143A U148A | ≤ -4.2 |

| Variant | polymerase ribozyme fitness (log ratio) |
| --- | --- |
| U7C G46C U56A U77C G81A G86U G100A G133U | ≤ -4.2 |
| C36U A52U C75G G88C C105A C114G A115G | ≤ -4.2 |
| C18G G92U U130G | -4.01 |
| C63U U104G | 0.272 |
| G62C A115C | -1.06 |
| A41C A60U A91G U134C | -4.11 |
| A16G A49U C131U | -1.5 |
| C5U A64C G84A A122G G124U U144G U151A | ≤ -4.2 |
| C123U A142U | -1.13 |
| C35A U144G U151A | ≤ -4.2 |
| A97U U109G | -1.62 |
| A30U A106G | -2.9 |
| A23U A64C G68C | ≤ -4.2 |
| U45G G80C A106G A119U A121U G124C G133U | ≤ -4.2 |
| U45A A52C G71A C99A G133U U145G | ≤ -4.2 |
| A16C A22U A89U C93U | -3.06 |
| C51G C63U C116U U139C | ≤ -4.2 |
| U31A G86U | -0.886 |
| C54A C85G U102G | ≤ -4.2 |
| U6A C35A U104C | -3.88 |
| C149U | -0.847 |
| C93U G94U A107C | ≤ -4.2 |
| G50C U56A | -2.92 |
